Assay results from US20250235504A1, “ENHANCEMENT OF CD47 BLOCKADE WITH TAXANES FOR CD47+ CANCER THERAPY” (Pfizer Inc., priority 2021, published 2025).

Legend:
[1] = biological target: human CD47 (human) (UniProt Q08722); experiment: cell-based or functional assay
[2] = test system: human B cell lymphoma cell line (Toledo); experiment: Macrophage phagocytosis assay with VPD450-labeled Toledo cells (flow cytometry); format: cell-based; conditions: two hours co-culture, FIG. 1
Source text: Heparinized whole blood was obtained from normal healthy human donors (Biological Specialty Corporation) and informed consent was obtained from all donors. Peripheral blood mononuclear cells (PBMCs) were isolated over Ficoll-Paque Plus density gradient (GE Healthcare) and CD14+ monocytes were isolated from PBMCs by positive selection using CD14 antibody-coated MicroBead separation (Miltenyi Biotec). Monocytes were differentiated into macrophages by culturing for seven days in X-Vivo-15 media (Lonza) supplemented with M-CSF (PeproTech), at which point paclitaxel was added to the macrophage culture for an additional six days. On the day of the phagocytosis assay, macrophages were co-cultured with violet proliferation dye 450 (VPD450)-labeled human B cell lymphoma cell line (Toledo) in the presence of 1 μM human SIRPαFc (IgV domain of human SIRPα variant 2 fused with IgG1 Fc), 1 μM control Fc [human IgG1 Fc region (hinge-CH2-CH3)] or nothing (no treatment, NT) for two hours. Phagocytosis was assessed as % VPD450+ cells of live, single CD14+CD11b+ macrophages by flow cytometry. Results are shown in FIG. 1 and are duplicates from a single experiment.

UniProt Q08722, sequence (Q08722 19-323): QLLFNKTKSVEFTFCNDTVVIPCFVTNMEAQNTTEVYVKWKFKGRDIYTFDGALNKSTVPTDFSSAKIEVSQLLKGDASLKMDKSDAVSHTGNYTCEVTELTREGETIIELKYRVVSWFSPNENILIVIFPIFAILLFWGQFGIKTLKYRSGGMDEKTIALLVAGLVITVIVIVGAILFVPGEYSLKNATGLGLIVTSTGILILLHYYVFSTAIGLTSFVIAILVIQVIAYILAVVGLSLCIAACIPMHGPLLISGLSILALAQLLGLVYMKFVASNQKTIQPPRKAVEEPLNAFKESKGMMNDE

Row | Substance | % phagocytosis (% VPD450+ cells of live, single CD14+CD11b+ macrophages) of Toledo cells, 1 µM SIRPαFc, macrophages cultured in paclitaxel [1] | % phagocytosis (% VPD450+ cells of live, single CD14+CD11b+ macrophages) of Toledo cells, 1 µM SIRPαFc, macrophages not cultured in paclitaxel [1] | % phagocytosis (% VPD450+ cells of live, single CD14+CD11b+ macrophages) ([2]; 1 μM SIRPαFc, "no treatment" macrophages (not cultured in paclitaxel)) | phagocytosis of the VPD450-labeled B cell lymphoma cells (in words) ([2]; 1 μM protein)
1 | human SIRPαFc (IgV domain of human SIRPα variant 2 fused with IgG1 Fc) (Fc fusion) | 15% | 9% |  | 
2 | SIRPαFc: IgV domain of human SIRPα variant 2 fused with IgG1 Fc |  |  | around 9% | substantial phagocytosis
